The supplement of paper PMC7877785
± gives the uncertainty stated by the source.

Assay: self-splicing fitness, log relative to wild type (ln ratio); higher = more splicing; Tetrahymena group I intron in knt gene, E. coli kanamycin selection, DiMSum; sequences stand for … in CUCUCU…GGAGGGAAAAGUUAUCAGGCAUGCACCUGGUAGCUAGUCUUUAAACCAAUAGAUUGCAUCGGUUUAAAAGGCAAGACCGUCAAAUUGCGGGAAAGGGGUCAACAGCCGUUCAGUACCAAGUCUCAGGGGAAACUUUGAGAUGGCCUUGCAAAGGGUAUGGUAAUAAGCUGACGGACAUGGUCCUAACCACGCAGCCAAGUCCUAAGUCAACAGAUCUUCUGUUGAUAUGGAUGCAGUUCACAGACUAAAUGUCGGUCGGGGAAGAUGUAUUCUUCUCAUAAGAUAUAGUCGGACCUCUCCUUAAUGGGAGCUAGCGGAUGAAGUGAUGCAACACUGGAGCCGCUGGGAACUAAUUUGUAUGCGAAAGUAUAUUGAUUAGUUUUGGAGUACUCGUGGUCG
Outline: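 Colonies from six replicate transformations of E. coli BL21(DE3) were pooled and amplicon-sequenced on an Illumina HiSeq 2500. The library placed an intron with all eight P1ex-region nucleotides randomised inside the knt kanamycin-resistance gene on pET-22b(+), and cells grew overnight at 37°C or 30°C on LB agar with or without 25 μg/mL kanamycin (plus 100 μg/mL carbenicillin, 50 μM IPTG, 0.2% rhamnose). Fitness is the DiMSum error-weighted combination of wild-type-normalised replicate fold changes, kanamycin versus none.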

Row | Sequence | self-splicing fitness (ln) (30 °C) | self-splicing fitness (ln) (37 °C)
1 | CGGAAGCAAUAUUACGUGGU | -3.62 ± 0.21 | -1.94 ± 0.2
2 | CGGAAGCAAUAUUACGUGUA | -3.19 ± 0.17 | -3.6 ± 0.27
3 | CGGAAGCAAUAUUACGUUGC | -3.59 ± 0.26 | -2.69 ± 0.48
4 | CGGCAGCAAUAUUACGAACC | -0.757 ± 0.33 | -0.368 ± 0.37
5 | CGGCAGCAAUAUUACGACCA | -0.307 ± 0.1 | 0.682 ± 0.14
6 | CGGCAGCAAUAUUACGAGAC | -3.78 ± 0.22 | -3.43 ± 0.35
7 | CGGCAGCAAUAUUACGAGUC | -1.86 ± 0.34 | -1.76 ± 0.25
8 | CGGCAGCAAUAUUACGCACA | -0.39 ± 0.1 | -0.122 ± 0.14
9 | CGGCAGCAAUAUUACGCACU | -1.45 ± 0.086 | -0.361 ± 0.1
10 | CGGCAGCAAUAUUACGCGCU | -4.1 ± 0.25 | -1.99 ± 0.25
11 | CGGCAGCAAUAUUACGGACC | -2.09 ± 0.26 | -1.26 ± 0.2
12 | CGGCAGCAAUAUUACGGAGC | -3.37 ± 0.14 | -3.3 ± 0.2
13 | CGGCAGCAAUAUUACGGCAC | -2.58 ± 0.28 | -2.21 ± 0.22
14 | CGGCAGCAAUAUUACGGCAG | -0.677 ± 0.095 | -0.796 ± 0.11
15 | CGGCAGCAAUAUUACGGCGG | -1.26 ± 0.11 | -0.79 ± 0.14
16 | CGGCAGCAAUAUUACGGGGU | -3.58 ± 0.19 | -3.28 ± 0.31
17 | CGGCAGCAAUAUUACGGUAU | -3.82 ± 0.19 | -3.18 ± 0.22
18 | CGGCAGCAAUAUUACGUAGA | -2.33 ± 0.12 | -1.19 ± 0.17
19 | CGGCAGCAAUAUUACGUGCU | -3 ± 0.14 | -1.63 ± 0.16
20 | CGGCAGCAAUAUUACGUGUC | -3.89 ± 0.31 | -2.6 ± 0.2
21 | CGGCAGCAAUAUUACGUUAC | -3.4 ± 0.2 | -3.3 ± 0.33
22 | CGGCAGCAAUAUUACGUUGG | -2.38 ± 0.11 | -1.46 ± 0.12
23 | CGGGAGCAAUAUUACGAAUU | -3.16 ± 0.34 | 
24 | CGGGAGCAAUAUUACGCCGU | -3.46 ± 0.47 | 
25 | CGGGAGCAAUAUUACGCGGC | -2.4 ± 0.43 | -1.77 ± 0.3

Row | Sequence | self-splicing fitness (ln) (30 °C) | self-splicing fitness (ln) (37 °C)
26 | CGGGAGCAAUAUUACGCUAU | -3.6 ± 0.31 | -2.64 ± 0.48
27 | CGGGAGCAAUAUUACGCUGA | -1.34 ± 0.21 | -2.14 ± 0.31
28 | CGGGAGCAAUAUUACGCUGU | -2.76 ± 0.33 | -2.43 ± 0.34
29 | CGGGAGCAAUAUUACGGAAU | -4.07 ± 0.46 | -1.42 ± 0.43
30 | CGGGAGCAAUAUUACGGAGG | -3.27 ± 0.15 | -3.12 ± 0.3
31 | CGGGAGCAAUAUUACGGAUC | -3.09 ± 0.43 | -2.07 ± 0.42
32 | CGGGAGCAAUAUUACGGCCG | -3.09 ± 0.31 | 
33 | CGGGAGCAAUAUUACGGCCU | -3.25 ± 0.31 | -2.88 ± 0.44
34 | CGGGAGCAAUAUUACGGCUG | -2.43 ± 0.25 | -2.14 ± 0.34
35 | CGGGAGCAAUAUUACGGGCG | -2.44 ± 0.31 | -2.67 ± 0.41
36 | CGGGAGCAAUAUUACGGGUA | -2.54 ± 0.21 | -1.75 ± 0.2
37 | CGGGAGCAAUAUUACGGUUA | -3.42 ± 0.25 | -2.69 ± 0.29
38 | CGGGAGCAAUAUUACGUGGA | -2.06 ± 0.15 | -3.14 ± 0.23
39 | CGGGAGCAAUAUUACGUGUU | -5.29 ± 0.38 | -2.2 ± 0.25
40 | CGGGAGCAAUAUUACGUUAG | -3.18 ± 0.26 | -1.9 ± 0.29
41 | CGGGAGCAAUAUUACGUUCG | -3.74 ± 0.47 | -1.75 ± 0.27
42 | CGGGAGCAAUAUUACGUUUG | -2.75 ± 0.17 | -2.11 ± 0.19
43 | CGGUAGCAAUAUUACGAACU | -1.3 ± 0.17 | -0.755 ± 0.17
44 | CGGUAGCAAUAUUACGAAGU | -2.86 ± 0.3 | -1.85 ± 0.25
45 | CGGUAGCAAUAUUACGAUAU | -3.58 ± 0.31 | -1.33 ± 0.24
46 | CGGUAGCAAUAUUACGAUGU | -0.932 ± 0.093 | -0.763 ± 0.15
47 | CGGUAGCAAUAUUACGCAUU |  | -2.5 ± 0.24
48 | CGGUAGCAAUAUUACGCCUA | -0.535 ± 0.14 | -0.215 ± 0.11
49 | CGGUAGCAAUAUUACGCCUG | -1.32 ± 0.13 | -0.225 ± 0.11
50 | CGGUAGCAAUAUUACGCGAU | -2.23 ± 0.35 | -2.41 ± 0.44

Row | Sequence | self-splicing fitness (ln) (30 °C) | self-splicing fitness (ln) (37 °C)
51 | CGGUAGCAAUAUUACGCUCU | -2.71 ± 0.24 | -2.43 ± 0.33
52 | CGGUAGCAAUAUUACGGACG | -0.708 ± 0.1 | -0.837 ± 0.13
53 | CGGUAGCAAUAUUACGGGGU | -4.08 ± 0.3 | -2.81 ± 0.22
54 | CGGUAGCAAUAUUACGGUUU | -3.36 ± 0.16 | -1.83 ± 0.15
55 | CGGUAGCAAUAUUACGUACG | -1.3 ± 0.12 | -0.879 ± 0.16
56 | CGGUAGCAAUAUUACGUAUG | -0.225 ± 0.092 | 0.297 ± 0.12
57 | CGGUAGCAAUAUUACGUCAG | -0.671 ± 0.15 | -1.09 ± 0.17
58 | CGGUAGCAAUAUUACGUCCG | -2.86 ± 0.3 | -2.02 ± 0.36
59 | CGGUAGCAAUAUUACGUGAU | -1.49 ± 0.14 | -0.851 ± 0.18
60 | CGGUAGCAAUAUUACGUGGC | -3.4 ± 0.17 | -3.09 ± 0.23
61 | CGGUAGCAAUAUUACGUGUA | -3.31 ± 0.2 | -2.97 ± 0.28
62 | CGGUAGCAAUAUUACGUUCG | -2.19 ± 0.14 | -1.99 ± 0.24
63 | CGUAAGCAAUAUUACGAAUC |  | -2.06 ± 0.3
64 | CGUAAGCAAUAUUACGAGAG | -3.56 ± 0.22 | -3.14 ± 0.28
65 | CGUAAGCAAUAUUACGAGCA | -1.84 ± 0.48 | -1.33 ± 0.22
66 | CGUAAGCAAUAUUACGAUUG | -0.745 ± 0.079 | -0.605 ± 0.11
67 | CGUAAGCAAUAUUACGCCGA | -3.5 ± 0.25 | -1.44 ± 0.14
68 | CGUAAGCAAUAUUACGCGAA | -3.5 ± 0.24 | -3.88 ± 0.39
69 | CGUAAGCAAUAUUACGCUAC |  | -1.98 ± 0.4
70 | CGUAAGCAAUAUUACGCUUC |  | -2.52 ± 0.45
71 | CGUAAGCAAUAUUACGGGAA | -3.04 ± 0.41 | -1.9 ± 0.44
72 | CGUAAGCAAUAUUACGGUAG | -2.56 ± 0.14 | -1.4 ± 0.1
73 | CGUAAGCAAUAUUACGGUCU | -2.56 ± 0.092 | -1.46 ± 0.081
74 | CGUAAGCAAUAUUACGGUUG | -0.897 ± 0.061 | -0.159 ± 0.078
75 | CGUAAGCAAUAUUACGUAGG | -1.09 ± 0.082 | -0.149 ± 0.11

Row | Sequence | self-splicing fitness (ln) (30 °C) | self-splicing fitness (ln) (37 °C)
76 | CGUAAGCAAUAUUACGUCAU | -3.23 ± 0.17 | -2.38 ± 0.17
77 | CGUAAGCAAUAUUACGUUGG | -1.93 ± 0.12 | -0.912 ± 0.13
78 | CGUCAGCAAUAUUACGAAAU | -3.61 ± 0.23 | -2.6 ± 0.22
79 | CGUCAGCAAUAUUACGAAUA | -2.58 ± 0.16 | -1.98 ± 0.16
80 | CGUCAGCAAUAUUACGAAUG | -0.494 ± 0.077 | -0.0535 ± 0.093
81 | CGUCAGCAAUAUUACGAGCA | -0.74 ± 0.14 | -0.627 ± 0.14
82 | CGUCAGCAAUAUUACGAUAC | -2.65 ± 0.14 | -1.38 ± 0.12
83 | CGUCAGCAAUAUUACGCACG | -2.16 ± 0.11 | -1.22 ± 0.12
84 | CGUCAGCAAUAUUACGCAUG | -1.06 ± 0.07 | 0.0876 ± 0.082
85 | CGUCAGCAAUAUUACGCCAG | -0.944 ± 0.15 | -0.48 ± 0.23
86 | CGUCAGCAAUAUUACGCGCA | -1.1 ± 0.14 | -0.181 ± 0.13
87 | CGUCAGCAAUAUUACGCGUG | -0.575 ± 0.054 | -0.39 ± 0.066
88 | CGUCAGCAAUAUUACGCUAU | -3.14 ± 0.19 | -1.55 ± 0.17
89 | CGUCAGCAAUAUUACGGCGC | -3.38 ± 0.37 | -1.3 ± 0.35
90 | CGUCAGCAAUAUUACGGGAC | -3.95 ± 0.25 | -1.73 ± 0.23
91 | CGUCAGCAAUAUUACGGGAG | -2.36 ± 0.098 | -0.946 ± 0.11
92 | CGUCAGCAAUAUUACGGGUU | -3.44 ± 0.17 | -2.56 ± 0.15
93 | CGUCAGCAAUAUUACGGUAU | -2.04 ± 0.11 | -2.59 ± 0.16
94 | CGUCAGCAAUAUUACGGUGA | -2.52 ± 0.11 | -2.81 ± 0.16
95 | CGUCAGCAAUAUUACGGUUU | -2.39 ± 0.098 | -1.97 ± 0.097
96 | CGUCAGCAAUAUUACGUAUG | -0.163 ± 0.12 | 0.188 ± 0.13
97 | CGUCAGCAAUAUUACGUCCG | -1.03 ± 0.11 | -0.273 ± 0.14
